Legend:
Test in all cases: SEC-MALS; Superose 6 Increase 10/300, 1x PBS pH 7.4, 0.4 mL/min, non-denaturing; self-assembly of the fusion protein into the nanoparticle
[1] = biological target: Encapsulin-pH1HA10 (Myxococcus xanthus) (UniProt Q1D6H4)
[2] = biological target: MsDps2-pH1HA10 (Mycobacterium smegmatis)
[3] = biological target: pH1HA10-Ferritin (Helicobacter pylori) (UniProt Q9ZLI1)

Question: How did the stoichiometry N [1] turn out when “Encapsulin-pH1HA10 (from UniProt Q1D6H4 1-287)” was run?
Answer: 180

Question: MsDps2-pH1HA10 was tested. Which stoichiometry N [2] did it give?
Answer: 12

Question: Which stoichiometry N [3] does the source give for “pH1HA10-Ferritin (from UniProt Q9ZLI1 1-163)” here?
Answer: 24

From article PMC9204493
